Laboratory results taken from patent US20240010747A1, “ANTI-MRP4 (ENCODED BY ABCC4 GENE) ANTIBODIES AND USES THEREOF” (Kenjockety Biotechnology, Inc., priority 2020, published 2024).

T1: human ABCC4 (Homo sapiens, UniProt O15439)
T1 construct: expressed in transfected cells
T1 sequence (O15439 1-1325): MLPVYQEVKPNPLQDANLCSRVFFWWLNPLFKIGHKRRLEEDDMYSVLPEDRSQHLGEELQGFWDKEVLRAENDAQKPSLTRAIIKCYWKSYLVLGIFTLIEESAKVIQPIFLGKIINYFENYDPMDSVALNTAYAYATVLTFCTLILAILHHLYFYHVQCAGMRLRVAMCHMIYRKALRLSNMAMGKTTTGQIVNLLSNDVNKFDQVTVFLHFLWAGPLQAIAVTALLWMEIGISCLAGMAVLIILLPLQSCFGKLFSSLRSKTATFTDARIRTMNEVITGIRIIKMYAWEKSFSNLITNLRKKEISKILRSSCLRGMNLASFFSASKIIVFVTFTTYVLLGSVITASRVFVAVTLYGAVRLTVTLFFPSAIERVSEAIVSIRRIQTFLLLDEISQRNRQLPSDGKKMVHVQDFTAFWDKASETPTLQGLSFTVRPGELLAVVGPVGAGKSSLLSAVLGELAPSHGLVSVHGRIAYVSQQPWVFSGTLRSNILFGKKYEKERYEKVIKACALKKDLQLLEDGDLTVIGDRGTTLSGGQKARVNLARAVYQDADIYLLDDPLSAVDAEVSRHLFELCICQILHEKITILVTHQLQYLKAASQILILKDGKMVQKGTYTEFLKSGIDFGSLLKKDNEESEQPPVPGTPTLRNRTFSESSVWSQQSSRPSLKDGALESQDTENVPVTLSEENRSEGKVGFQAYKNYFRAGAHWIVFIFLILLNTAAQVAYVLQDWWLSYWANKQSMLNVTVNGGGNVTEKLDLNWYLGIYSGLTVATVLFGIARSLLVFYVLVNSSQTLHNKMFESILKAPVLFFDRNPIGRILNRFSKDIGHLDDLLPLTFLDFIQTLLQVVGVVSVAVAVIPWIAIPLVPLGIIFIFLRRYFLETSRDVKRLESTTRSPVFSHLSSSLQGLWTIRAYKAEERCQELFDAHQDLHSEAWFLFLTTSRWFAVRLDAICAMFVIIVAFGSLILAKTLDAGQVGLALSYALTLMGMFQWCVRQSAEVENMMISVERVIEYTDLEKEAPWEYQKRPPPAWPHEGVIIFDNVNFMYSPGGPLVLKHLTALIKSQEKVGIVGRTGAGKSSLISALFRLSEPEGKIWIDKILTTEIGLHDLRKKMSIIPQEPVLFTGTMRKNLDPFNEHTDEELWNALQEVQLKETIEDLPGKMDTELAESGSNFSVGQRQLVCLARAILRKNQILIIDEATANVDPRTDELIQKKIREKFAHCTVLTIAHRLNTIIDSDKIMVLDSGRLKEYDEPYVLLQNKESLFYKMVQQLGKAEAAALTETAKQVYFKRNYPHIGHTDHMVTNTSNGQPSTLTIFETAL

B1: C4.985: anti-ABCC4 antibody raised in rats; VH SEQ ID NO: 14, VL SEQ ID NO: 134 (antibody, V domains shown)
VH: EVQLVESGGGLVQPGRSLKLSCTASGFTFNKNWMAWIRQAPGKGLEWVASITNTGGNTYYPDSVKGRFTVSRDQTISTLYLQMNSLRSEDTATYFCTRERIGSGYYVMDAWGRGASVTVSS
VL: DTVLTQSPALTVSPGERVTISCRASESVTSFMNWYQQKPGQQPKLLIYLASDLESGVPARFSGSGSGADFTLTIDPVEADDTATYYCQQSWIDPPTFGTGTKLELK
B2: C4.886: anti-ABCC4 antibody raised in rats; VH SEQ ID NO: 2, VL SEQ ID NO: 125 (antibody, V domains shown)
VH: EVKLLESGGDLLQPGRSLKLSCAASGFTFNDYNMAWVRQAPKKGLQWVATILYDGSRTYYRDSVKGRFTISRDNSKSTLYLQMDSLRSEDTATYYCTTEFGYGSSHWFACWGQGTLVTVSS
VL: DVVLTQTPVSLPVSLGGQASISCRSSQSLVHSNGNTYLHWYLQKPGQSPQLLISRISNRFSGVPDRFSGSGSGTDFTLKISRVEPEDLGDYYCFQSTHFPHTFGAGTKLEIK
B3: C4.972: anti-ABCC4 antibody raised in rats; VH SEQ ID NO: 11, VL SEQ ID NO: 132 (antibody, V domains shown)
VH: EVQLKESGPGLVQPSETLSLTCTVSGFSLTSYNVHWVRQPPGKGLEWMGVMWSGGSTDYSSALKSRLSISRDTSKNQVFLKMNSLQSEDTTTYYCARDRGGYYYDGYPHDFVYWGQGVMVTVSS
VL: EIVIIQSPALAVSLGQRATISCKTNQNVDYYGNSYIHWYQQKPGQQPKLLIYLASNLASGIPARFSGRGSGTDFTLTIDPVEADDPATYYCQQSRNLPFTFGSGTKLELK
B4: C4.991: anti-ABCC4 antibody raised in rats; VH SEQ ID NO: 16, VL SEQ ID NO: 136 (antibody, V domains shown)
VH: EVKLVESGGGLVQPGRSLQVSCVASGFIFTDYYMAWVRQAPTKGLEWVAYINYDGGSTYYGDSVKGRFTISRDNAKSTLYLQMNSLRSEDMATYYCARRDYGSKFDNWGQGTLVTVSS
VL: DIVMTQSPSLLSASVGDRVTLTCKGSQNINNFLAWYQQKRGEAPKLLIYKTNSLHTGIPSRFSGSGSGTEYTLTISSLHSEDLATYYCYQYNNGYTFGAGTKLELK
B5: C4.987: anti-ABCC4 antibody raised in rats; VH SEQ ID NO: 15, VL SEQ ID NO: 135 (antibody, V domains shown)
VH: EVQLVESGGGLVQPGRSMKLSCAASGFTFSNYYMAWVRQAPTKGLEWVASISTGGGNTHYRDSVKGRFTISRDNAKSTLYLQMDSLRSEETATYYCARGEDRYKGVFAYWGQGTLVTVSS
VL: DVQMTQSPSNLAASPGESVSINCKASKSISKYLAWYQQKPGKANKLLIYSGSTLQSGTPSRFSGSGSGTDFTLTIRNLEPEDFGLYYCQHHNEYPPTFGAGTKLELK
B6: C4.953: anti-ABCC4 antibody raised in rats; VH SEQ ID NO: 6, VL SEQ ID NO: 129 (antibody, V domains shown)
VH: QVTLKESGPGILQPSQTLSLTCTFSGFSLSTYGMGVGWIRQPSGKALEWLANIWWDDDKSYNPSLKNRLTISKGTSNNQAFLKITSVDTADSATYHCARIGSGNSEFDYWGQGVMVTVSS
VL: DVVLTQSPSSLSASLGDRVTITCRASQDIGNYLTWFQQKPGKSPRRMIYGATNLAAGVPSRFSGSRSGSDYSLTISSLESEDVADYHCLQSIQYPFTFGSGTKLEIK

What follows are molecules tested against T1, human ABCC4 (assay: Flow cytometry (FACS) binding to C6 cells stably transfected to express human ABCC4 (Table 3 study)). Conditions: C6 cells stably transfected to express human ABCC4, FACS; Table 3.
Experimental: (§1) Binding titration of recombinant antibodies to ABCC4 transfectants was performed by serial dilution of antibodies from about 666 nM. Diluted antibody in flow cytometry buffer was incubated with cells on ice for 30 min. After 2 washes with flow cytometry buffer, bound antibody was detected with PE-labeled F(ab′)2 fragment goat anti-human IgG (Jackson ImmunoResearch) diluted 1:200 in flow cytometry buffer and incubated with cells for 20 min on ice. After 2 washes with flow cytometry buffer fluorescence was measured on an Attune N×T flow cytometer. Data were analyzed with GraphPad Prism 8.0 software to determine EC50's.
(§2) Human embryonic kidney HEK 293T cells and murine C6 (ATCC CCL-107) were transfected with human or cynomolgus ABCC4 cDNA with C-terminal fused FLAG tag in a pMONO-hygro vector with Lipofectamine 3000 (Invitrogen #L3000001). The cells were treated with 0.2 mg/ml and 0.5 mg/ml hygromycin respectively for about 2 weeks while cultivated in DMEM and 10% FBS with 0.2 mg/ml hygromycin and 0.5 mg/ml hygromycin, respectively. The cells were washed with PBS, and stained with […] of anti-FLAG-PE after fixing and permeablization. Clones expressing ABCC4 were single-cell sorted into 200 μl DMEM with 10% FBS using a BD Aria FACS machine and cultivated in 96 well plates using standard techniques in an incubator at 37° C. and 5% CO 2. Two weeks later clones expressing high levels of ABCC4 were screened and amplified.
(§3) Antibody binding to cells was evaluated by flow cytometry. Murine C6 cells stably transfected to express human or cynomolgus ABCC4 were washed once in flow cytometry buffer (PBS+2% FBS+0.02% sodium azide), resuspended at 2×10^6 cells/mL in flow cytometry buffer, and dispensed into 96-well microtiter plates at 0.1 mL/well. Recombinant antibodies were added to cells at 5 ug/mL for initial binding confirmation, or serially diluted from 100 ug/mL in flow cytometry buffer. After incubating cells on ice for 30 min, cells were washed twice with flow cytometry buffer. Bound antibody was detected with PE-labeled F(ab′)2 fragment goat anti-human IgG (Jackson ImmunoResearch) and evaluated on an Attune N×T flow cytometer. EC50 is calculated to be the concentration of antibody that gives half maximal response.
(§4) Table 3 lists the following characteristics of the rat anti-ABCC4 antibodies tested: binding to C6 cells stably transfected to express human ABCC4 measured by FACS and binding to C6 cells stably transfected to express cynomolgus ABCC4 measured by FACS. Negative (−) is defined as maximum response (Rmax(MFI)) below background level. Positive (+) is defined as MFI>1000.

| Human ABCC4 binding | Molecule |
| --- | --- |
| + (Positive (+) is defined as MFI>1000) | B1 |
| + (Positive (+) is defined as MFI>1000) | B2 |
| + (Positive (+) is defined as MFI>1000) | B3 |
| + (Positive (+) is defined as MFI>1000) | B4 |
| + (Positive (+) is defined as MFI>1000) | B5 |
| + (Positive (+) is defined as MFI>1000) | B6 |

Each molecule was assayed on cynomolgus ABCC4 (assay: Flow cytometry (FACS) binding to C6 cells stably transfected to express cynomolgus ABCC4 (Table 3 study)). Conditions: C6 cells stably transfected to express cynomolgus ABCC4, FACS; Table 3.
Parameters: key to Cynomolgus ABCC4 binding: Negative (−) is defined as maximum response (Rmax(MFI)) below background level; Positive (+) is defined as MFI>1000
Experimental: as §1, §2, §3, §4

| Molecule | Cynomolgus ABCC4 binding |
| --- | --- |
| B1 | − |
| B2 | − |
| B3 | − |
| B4 | − |
| B5 | − |
| B6 | − |

What follows are molecules tested against T1, human ABCC4 (assay: Flow cytometry (FACS) binding to C6 cells stably transfected to express human ABCC4 (different experiment, Table 4)). Conditions: C6 cells stably transfected to express human ABCC4, FACS; different experiment, Table 4.
Outline: (§5)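 Murine C6 cells stably expressing FLAG-tagged human or cynomolgus ABCC4 incubated 30 min on ice with antibodies, either 5 ug/mL or serially diluted from 100 ug/mL, in PBS+2% FBS+0.02% azide. Detection with PE anti-human IgG F(ab′)2 by flow cytometry; EC50 at half-maximal MFI; negative below background, positive >3× background.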

| Human ABCC4 binding | Molecule |
| --- | --- |
| + (Positive (+)=MFI>3× background level) | B1 |
| + (Positive (+)=MFI>3× background level) | B2 |
| + (Positive (+)=MFI>3× background level) | B3 |
| + (Positive (+)=MFI>3× background level) | B4 |
| + (Positive (+)=MFI>3× background level) | B5 |
| + (Positive (+)=MFI>3× background level) | B6 |

Same assay, conditions: Table 4 study, stated in words

| binding to human ABCC4 expressed on cell surface | Molecule |
| --- | --- |
| bind to both human and cynomolgus ABCC4 | B2 |
| bind to both human and cynomolgus ABCC4 | B3 |
| bind to both human and cynomolgus ABCC4 | B6 |

Each molecule was assayed on cynomolgus ABCC4 (assay: Flow cytometry (FACS) binding to C6 cells stably transfected to express cynomolgus ABCC4 (different experiment, different C6.cC4 cell line, Table 4)). Conditions: Table 4 study, stated in words.
Parameters: key to Cynomolgus ABCC4 binding: Negative (−)=Rmax (MFI) below background level; Positive (+)=MFI>3× background level
Outline: as §5

| Molecule | binding to cynomolgus ABCC4 expressed on cell surface |
| --- | --- |
| B2 | bind to both human and cynomolgus ABCC4 |
| B3 | bind to both human and cynomolgus ABCC4 |
| B6 | bind to both human and cynomolgus ABCC4 |

Same assay, conditions: different C6.cC4 cell line, C6 cells stably transfected to express cynomolgus ABCC4, FACS; Table 4

| Molecule | Cynomolgus ABCC4 binding |
| --- | --- |
| B1 | − |
| B2 | + (Positive (+)=MFI>3× background level) |
| B3 | + (Positive (+)=MFI>3× background level) |
| B4 | − |
| B5 | − |
| B6 | + (Positive (+)=MFI>3× background level) |
